The text below walks through data of US20180100008A1 (VHSQUARED, published 2018).

Assay [1] has as its target T1, TcdB from C. difficile ribotype 027 (Clostridium difficile ribotype 027 …, UniProt P18177 2-2366).
T1 construct: also called 027 TcdB; R20291 (027)
Briefly: ELISA, TcdB coated, quadrahead detected with rabbit polyclonal anti-ICVD. (An ELISA detects its analyte on a solid surface through an enzyme-linked reagent.)

Assay [2] addresses T2, TcdB from C. difficile ribotype 087 (Clostridium difficile ribotype 087 …, UniProt P18177 2-2366).
T2 construct: also called 087 TcdB; 10463 (087)
Briefly: sandwich ELISA (figure legend).

Assay [3] has as its target T1, TcdB from C. difficile ribotype 027. Briefly: sandwich ELISA: TcdB coated, quadrahead, then TcdA, rabbit anti-TcdA pAb.
Assay [4] concerns the target T2, TcdB from C. difficile ribotype 087. The assay is described as above.

B1: ID1C (bispecific antibody)
chain: DVQLQESGGGLVQAGGSLRLSCAASGATSDVYAIGWFRQVPGKEREFVATINRSGSDSYYADSVKGRFTISRDNAKNTVYLQMNSLKPEETAVYYCAASRSDCIGYGCRRVSQDYWGQGTQVTVSSGGGGSGGGGSGGGGSGGGGSDVQLQESGGGLVQAGGSLRLSCVISGMDFSHKPAGWFRQAPGKEREFVASITTRASTHYADSVKGRFTISRDNAKNTVYLEMNSLKPEDTAVYYCNSEYYWGQGTQVTVSSGGGGSGGGGSGGGGSGGGGSDVQLQESGGGLVQAGDSLRLSCAASGATLSSYTIGWFRQAPEKEREFVAGSSRDGRTNYYANSVKGRFTISRDNAKNTVYLQMNSLKPEDTAVYYCAAHTTSGVPVRERSYAYWGQGTQVTVSSGGGGSGGGGSGGGGSGGGGSDVQLQESGGGLVQAGGSLRLSCAASGATFSSYYIGWFRQAPGKEREFVAAINGSGGNRISADSVKGRFTISRDNAKNTVYLQLNSLKPEDTAVYYCAASLTYYGRSARYDYWGQGTQVTVSS
Turning to B1, the binding result in assay [1] and in assay [2] was “binds” each time.

B2: ID3C (bispecific antibody)
chain: DVQLQESGGGLVQAGDSLRLSCAASGATLSSYTIGWFRQAPEKEREFVAGSSRDGRTNYYANSVKGRFTISRDNAKNTVYLQMNSLKPEDTAVYYCAAHTTSGVPVRERSYAYWGQGTQVTVSSGGGGSGGGGSGGGGSGGGGSDVQLQESGGGLVQAGGSLRLSCAASGATSDVYAIGWFRQVPGKEREFVATINRSGSDSYYADSVKGRFTISRDNAKNTVYLQMNSLKPEETAVYYCAASRSDCIGYGCRRVSQDYWGQGTQVTVSSGGGGSGGGGSGGGGSGGGGSDVQLQESGGGLVQAGGSLRLSCVISGMDFSHKPAGWFRQAPGKEREFVASITTRASTHYADSVKGRFTISRDNAKNTVYLEMNSLKPEDTAVYYCNSEYYWGQGTQVTVSSGGGGSGGGGSGGGGSGGGGSDVQLQESGGGLVQAGGSLRLSCAASGATFSSYYIGWFRQAPGKEREFVAAINGSGGNRISADSVKGRFTISRDNAKNTVYLQLNSLKPEDTAVYYCAASLTYYGRSARYDYWGQGTQVTVSS
For the molecule B2, the binding result in assay [3] and in assay [4] was “binds” throughout.
